Assay results from article doi:10.1101/283192, “Disrupted structure and aberrant function of CHIP mediates the loss of motor and cognitive function in preclinical models of cerebellar CHIPopathy” (bioRxiv, 2018).

Target: the molecule itself
Assay: SEC-MALS; GE Superdex 200 column, Wyatt DAWN HELEOS-II and T-Rex refractometer; 100 µl of 0.5 mg/ml of each sample loaded

Protein | stoichiometry N | binding result
CHIP-T246M, His-tagged recombinant (natural protein, human, UniProt Q9UNE7 1-303, looked up, CHIP (STUB1), human, full-length protein with the SCAR16 patient mutation T246M; T246M is a mutation found in patients (p.T246M); also called T246M CHIP; source: E. coli BL21(DE3), purified (HisTrap HP); copies: 10-12) MKGKEEKEGGARLGAGGGSPEKSPSAQELKEQGNRLFVGRKYPEAAACYGRAITRNPLVAVYYTNRALCYLKMQQHEQALADCRRALELDGQSVKAHFFLGQCQLEMESYDEAIANLQRAYSLAKEQRLNFGDDIPSALRIAKKKRWNSIEERRIHQESELHSYLSRLIAAERERELEECQRNHEGDEDDSHVRAQQACIEAKHDKYMADMDELFSQVDEKRKKRDIPDYLCGKISFELMREPCIMPSGITYDRKDIEEHLQRVGHFDPVTRSPLTQEQLIPNLAMKEVIDAFISENGWVEDY | 10 to 12 | 
CHIP-H260Q, His-tagged recombinant (natural protein, human, UniProt Q9UNE7 1-303, looked up, CHIP (STUB1), human, full-length protein with the synthetic mutation H260Q; source: E. coli BL21(DE3), purified (HisTrap HP)) MKGKEEKEGGARLGAGGGSPEKSPSAQELKEQGNRLFVGRKYPEAAACYGRAITRNPLVAVYYTNRALCYLKMQQHEQALADCRRALELDGQSVKAHFFLGQCQLEMESYDEAIANLQRAYSLAKEQRLNFGDDIPSALRIAKKKRWNSIEERRIHQESELHSYLSRLIAAERERELEECQRNHEGDEDDSHVRAQQACIEAKHDKYMADMDELFSQVDEKRKKRDIPDYLCGKISFELMREPCITPSGITYDRKDIEEQLQRVGHFDPVTRSPLTQEQLIPNLAMKEVIDAFISENGWVEDY |  | binds
